Assay results as given in the supplement of paper PMC7125110.
± gives the standard error. For some of these results: Variants at the floor of the assay were thinned out.

B1: glmS ribozyme (parent)
chain: AUAAAAGCGCCAGAACUACAGAAAUGUAGUUGACGAGGAGGAGGUUUAUCGAAUUUUCGGCGGAUGCCUCCAAA

Legend:
Conditions in all cases: with glucosamine-6-phosphate
glucosamine-6-phosphate [1] = variants of: B1; assay: kcat; higher = faster cleavage; RNA array
In short: (§1)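 Barcoded ribozyme variants, transcribed in situ by E. coli RNA polymerase on sequenced MiSeq chips, were followed via a hybridised Cy3 probe at 37 °C. Glucosamine-6-phosphate ranged from 40 μM to 10 mM in HEPES/KCl/Mg(OAc)2 buffer. kobs came from decay fits to per-tile medians, and kcat and KM from weighted Michaelis–Menten fits.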

glucosamine-6-phosphate [2] = variants of: B1; assay: KM; higher = weaker cofactor use; RNA array
In short: as §1

glucosamine-6-phosphate [3] = variants of: B1; assay: self-cleavage kobs at 160 uM GlcN6P; higher = faster cleavage; RNA array
In short: as §1

glucosamine-6-phosphate [4] = variants of: B1; assay: self-cleavage kobs at 640 uM GlcN6P; higher = faster cleavage; RNA array
In short: as §1

glucosamine-6-phosphate [5] = variants of: B1; assay: self-cleavage kobs at 2500 uM GlcN6P; higher = faster cleavage; RNA array
In short: as §1

glucosamine-6-phosphate [6] = variants of: B1; assay: self-cleavage kobs at 10000 uM GlcN6P; higher = faster cleavage; RNA array
In short: as §1

glucosamine-6-phosphate [7] = variants of: B1; assay: self-cleavage kobs at 40 uM GlcN6P; higher = faster cleavage; RNA array
In short: as §1

Variant | kcat (glucosamine-6-phosphate [1]) | KM (glucosamine-6-phosphate [2]) | self-cleavage kobs at 160 uM GlcN6P (glucosamine-6-phosphate [3]) | self-cleavage kobs at 640 uM GlcN6P (glucosamine-6-phosphate [4]) | self-cleavage kobs at 2500 uM GlcN6P (glucosamine-6-phosphate [5]) | self-cleavage kobs at 10000 uM GlcN6P (glucosamine-6-phosphate [6]) | self-cleavage kobs at 40 uM GlcN6P (glucosamine-6-phosphate [7])
A12U A33C | 0.00204 ± 0.00049 s⁻¹ | 7810 ± 2600 µM | 2.87e-05 ± 1.3e-05 s⁻¹ | 0.000178 ± 3.4e-05 s⁻¹ | 0.000501 ± 9.3e-05 s⁻¹ | 0.00113 ± 0.00019 s⁻¹ | 
G32C C67G | 2.22e-05 ± 2.6e-06 s⁻¹ | 2060 ± 980 µM |  |  |  | 1.85e-05 ± 8.6e-06 s⁻¹ | 
G32A A52G | 0.000151 ± 1.3e-05 s⁻¹ | 1760 ± 480 µM |  | 5.19e-05 ± 2e-05 s⁻¹ | 8.18e-05 ± 1.4e-05 s⁻¹ | 0.000131 ± 1.5e-05 s⁻¹ | 
A6U U30G | 4.09e-05 ± 8.6e-06 s⁻¹ |  |  |  | 4.14e-05 ± 1.3e-05 s⁻¹ | 3.5e-05 ± 9.7e-06 s⁻¹ | < 1e-05 s⁻¹
A53C A64U | < 1e-05 s⁻¹ |  |  |  |  |  | < 1e-05 s⁻¹
A39C C67U | 0.000495 ± 9.5e-05 s⁻¹ | 1150 ± 400 µM | 7.1e-05 ± 8.8e-06 s⁻¹ | 0.000154 ± 1.3e-05 s⁻¹ | 0.000377 ± 3.5e-05 s⁻¹ | 0.000443 ± 5.1e-05 s⁻¹ | 3.13e-05 ± 7.5e-06 s⁻¹
C11A A15C | 7.9e-05 ± 2.8e-05 s⁻¹ |  |  |  | 8.45e-05 ± 1.9e-05 s⁻¹ | 5.67e-05 ± 2.2e-05 s⁻¹ | 
A14C U54G | 0.00619 ± 0.0017 s⁻¹ | 3310 ± 1300 µM | 0.000219 ± 3.6e-05 s⁻¹ | 0.00107 ± 0.00016 s⁻¹ | 0.00296 ± 0.00041 s⁻¹ | 0.00448 ± 0.00056 s⁻¹ | 0.00011 ± 1.7e-05 s⁻¹
C68G U69A | 1.57e-05 ± 5.7e-06 s⁻¹ |  |  |  |  |  | 
C11A G32A | 1.09e-05 ± 7.8e-07 s⁻¹ |  |  |  |  |  | 
A48U A64G | 0.00341 ± 0.00044 s⁻¹ | 5500 ± 1100 µM | 8.32e-05 ± 1.7e-05 s⁻¹ | 0.000385 ± 7.8e-05 s⁻¹ | 0.0012 ± 0.00016 s⁻¹ | 0.00214 ± 0.00022 s⁻¹ | 2.41e-05 ± 7.5e-06 s⁻¹
U47A A52U | 0.000365 ± 3.9e-05 s⁻¹ | 2690 ± 570 µM |  | 7.72e-05 ± 1.5e-05 s⁻¹ | 0.000158 ± 3e-05 s⁻¹ | 0.000299 ± 4.3e-05 s⁻¹ | 
A6U U31A U47G C50A A64G C68U | 2.33e-05 ± 2.2e-06 s⁻¹ |  |  |  |  |  | 
U54G C61U | 2.79e-05 ± 5.8e-06 s⁻¹ |  |  |  | 3.11e-05 ± 1.3e-05 s⁻¹ | 2.39e-05 ± 1e-05 s⁻¹ | 
U31A C68A | 2.86e-05 ± 9.3e-06 s⁻¹ |  |  |  | 4.06e-05 ± 1.6e-05 s⁻¹ |  | < 1e-05 s⁻¹
G13A A15U | 0.00015 ± 1.5e-05 s⁻¹ | 3530 ± 1100 µM |  |  | 6.03e-05 ± 2.6e-05 s⁻¹ | 0.000111 ± 1.5e-05 s⁻¹ | 
U47G U57G | 6.2e-05 ± 9.2e-06 s⁻¹ |  |  |  | 6.68e-05 ± 2.2e-05 s⁻¹ | 5.61e-05 ± 1.2e-05 s⁻¹ | 
A6C U47C | 1.02e-05 ± 2.4e-07 s⁻¹ | 526 ± 77 µM | < 1e-05 s⁻¹ |  |  |  | 

Variant | kcat (glucosamine-6-phosphate [1]) | KM (glucosamine-6-phosphate [2]) | self-cleavage kobs at 160 uM GlcN6P (glucosamine-6-phosphate [3]) | self-cleavage kobs at 640 uM GlcN6P (glucosamine-6-phosphate [4]) | self-cleavage kobs at 2500 uM GlcN6P (glucosamine-6-phosphate [5]) | self-cleavage kobs at 10000 uM GlcN6P (glucosamine-6-phosphate [6]) | self-cleavage kobs at 40 uM GlcN6P (glucosamine-6-phosphate [7])
A6C C67A | 3.57e-05 ± 2.8e-07 s⁻¹ | 1260 ± 54 µM |  |  |  | 3.18e-05 ± 9.1e-06 s⁻¹ | 
C61G U69C C70G | 5.75e-05 ± 1.9e-05 s⁻¹ |  | 5.95e-05 ± 2.1e-05 s⁻¹ | 6.36e-05 ± 2.5e-05 s⁻¹ | 8.71e-05 ± 4.1e-05 s⁻¹ |  | 
G37C G38U | < 1e-05 s⁻¹ |  |  | < 1e-05 s⁻¹ | < 1e-05 s⁻¹ |  | < 1e-05 s⁻¹
A36G U54G | < 1e-05 s⁻¹ |  |  |  |  |  | < 1e-05 s⁻¹
C61A C67A | 6.65e-05 ± 1.4e-05 s⁻¹ |  | 5.31e-05 ± 1.5e-05 s⁻¹ | 5.15e-05 ± 1.8e-05 s⁻¹ | 7.72e-05 ± 1.8e-05 s⁻¹ |  | 
G66U C70A | 7.35e-05 ± 1.3e-05 s⁻¹ |  |  | 0.000101 ± 4.5e-05 s⁻¹ | 8.96e-05 ± 3e-05 s⁻¹ | 6.04e-05 ± 2e-05 s⁻¹ | 
G37C C61A | < 1e-05 s⁻¹ |  |  |  |  |  | 
A14G U30C | 0.00152 ± 0.00022 s⁻¹ | 1880 ± 500 µM | 9.58e-05 ± 1.9e-05 s⁻¹ | 0.000552 ± 0.00011 s⁻¹ | 0.000958 ± 0.00012 s⁻¹ | 0.00122 ± 0.00013 s⁻¹ | 3.48e-05 ± 8e-06 s⁻¹
G13U U47C | 7.04e-05 ± 3.2e-06 s⁻¹ | 1030 ± 150 µM |  | 2.85e-05 ± 1.2e-05 s⁻¹ | 4.74e-05 ± 1.2e-05 s⁻¹ | 6.59e-05 ± 1.6e-05 s⁻¹ | 
C16A A48U | < 1e-05 s⁻¹ | 163 ± 44 µM | < 1e-05 s⁻¹ |  |  |  | < 1e-05 s⁻¹
G51U C67U | < 1e-05 s⁻¹ |  |  |  |  | < 1e-05 s⁻¹ | 
G29C G32U | 0.000823 ± 0.00021 s⁻¹ | 7540 ± 2900 µM |  |  | 0.000226 ± 6.2e-05 s⁻¹ | 0.000448 ± 0.00016 s⁻¹ | 
G29C G41U | 5.56e-05 ± 4e-07 s⁻¹ | 2090 ± 57 µM |  |  | 3.01e-05 ± 1.1e-05 s⁻¹ | 4.6e-05 ± 7.7e-06 s⁻¹ | 
C50G A52G | 2.65e-05 ± 7.5e-06 s⁻¹ |  | 3.58e-05 ± 1.7e-05 s⁻¹ |  | 3.29e-05 ± 1.4e-05 s⁻¹ |  | 
C67A | 0.0168 ± 0.0027 s⁻¹ | 1730 ± 380 µM | 0.00132 ± 8.4e-05 s⁻¹ | 0.004 ± 0.00015 s⁻¹ | 0.0101 ± 0.00044 s⁻¹ | 0.0155 ± 0.00076 s⁻¹ | 0.000434 ± 1.5e-05 s⁻¹
U46A A53G | 0.00162 ± 0.00057 s⁻¹ |  | 0.000201 ± 3.7e-05 s⁻¹ | 0.000508 ± 8.1e-05 s⁻¹ | 0.00104 ± 0.00016 s⁻¹ | 0.00261 ± 0.00051 s⁻¹ | 8.49e-05 ± 1.5e-05 s⁻¹
U55C G66C | 0.00112 ± 9.6e-05 s⁻¹ | 1950 ± 340 µM | 7.47e-05 ± 1.8e-05 s⁻¹ | 0.000336 ± 7.1e-05 s⁻¹ | 0.000678 ± 0.00012 s⁻¹ | 0.000913 ± 9.7e-05 s⁻¹ | 
U31C U55G | 0.0059 ± 0.0019 s⁻¹ | 2750 ± 1200 µM | 0.000291 ± 3.8e-05 s⁻¹ | 0.00104 ± 0.00018 s⁻¹ | 0.0022 ± 0.00033 s⁻¹ | 0.00547 ± 0.00061 s⁻¹ | 0.000126 ± 1.5e-05 s⁻¹
